From patent US20030138450A1 come the findings set out here.

For this assay, the target named is AMA1/E, refolded recombinant Plasmodium falciparum (3D7) AMA-1 ectodomain (amino acids 83-531) with N- and C-terminal histidine tags (Plasmodium falciparum 3D7) (UniProt P22621). Description: ELISA on plate-coated refolding mixtures of r-AMA1/E (GSH/GSSG 1/0.1 mM and 1/0.25 mM), against r-AMA1/E diluted in phosphate buffer with EDTA alone. Background: An ELISA detects its analyte on a solid surface through an enzyme-linked reagent.

Consider rat monoclonal antibody 4G2dc1, for which the fold ELISA reactivity over the phosphate buffer control stood at 5 fold.
